The assay has as its target ELOBC heterodimer (UniProt Q15370;Q15369). Briefly: SEC-MALS. In general terms: Size exclusion chromatography separates by hydrodynamic size, large species first.

Chain of ELOBC heterodimer (Q15370 whole entry, chain 1 of 2): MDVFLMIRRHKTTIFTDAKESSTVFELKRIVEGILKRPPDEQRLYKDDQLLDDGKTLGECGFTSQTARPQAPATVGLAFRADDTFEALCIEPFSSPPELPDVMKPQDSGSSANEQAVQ
Chain of ELOBC heterodimer (Q15369 whole entry, chain 2 of 2): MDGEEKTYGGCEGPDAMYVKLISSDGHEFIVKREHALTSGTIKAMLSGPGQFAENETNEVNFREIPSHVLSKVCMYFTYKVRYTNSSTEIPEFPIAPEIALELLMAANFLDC

B1: Strep-Vif (HIV-1 Vif, wild type) (natural protein)
chain: not shown
Regarding B1, the binding result is given as “binds”.

Values taken from PMC3582769 (Molecular cell, 2013).
